In the supplement of paper PMC9233669:
Variants at the floor of the assay were thinned out.

What was measured:
[1] = test system: biotinyl-Ile-oxazolone; assay: self-aminoacylation, catalytic enhancement (BIO) (fold over background); higher = more active; k-Seq, kA / k0A0; sequences stand for … in GGGAAUGGAUCCACAUCUACGAAUUC…UUCACUGCAGACUUGACGAAGCUG
Outline: (§1)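 The uncatalyzed rate is the low-activity peak of a bimodal Gaussian fit, and catalytic enhancement is median kA divided by it. The kA values came from pseudo-first-order fits, with 1000 bootstraps, of per-sequence fraction reacted measured by streptavidin capture, triplicate qPCR and Illumina sequencing. Mutagenized RNA pools with a 21-nt variable region (0.43 μM) were reacted with each biotinyl-aminoacyl-oxazolone at 2–1250 μM in 50 μL HEPES/NaCl/KCl/MgCl2/CaCl2 buffer with 5% acetonitrile, pH 6.9–7.0, for 90 minutes at room temperature.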

[2] = test system: biotinyl-Trp-oxazolone; assay: self-aminoacylation, catalytic enhancement (BWO) (fold over background); higher = more active; k-Seq, kA / k0A0; sequences stand for … in GGGAAUGGAUCCACAUCUACGAAUUC…UUCACUGCAGACUUGACGAAGCUG
Outline: as §1

[3] = test system: biotinyl-Leu-oxazolone; assay: self-aminoacylation, catalytic enhancement (BLO) (fold over background); higher = more active; k-Seq, kA / k0A0; sequences stand for … in GGGAAUGGAUCCACAUCUACGAAUUC…UUCACUGCAGACUUGACGAAGCUG
Outline: as §1

[4] = test system: biotinyl-Phe-oxazolone; assay: self-aminoacylation, catalytic enhancement (BFO) (fold over background); higher = more active; k-Seq, kA / k0A0; sequences stand for … in GGGAAUGGAUCCACAUCUACGAAUUC…UUCACUGCAGACUUGACGAAGCUG
Outline: as §1

[5] = test system: biotinyl-Val-oxazolone; assay: self-aminoacylation, catalytic enhancement (BVO) (fold over background); higher = more active; k-Seq, kA / k0A0; sequences stand for … in GGGAAUGGAUCCACAUCUACGAAUUC…UUCACUGCAGACUUGACGAAGCUG
Outline: as §1

[6] = test system: biotinyl-Met-oxazolone; assay: self-aminoacylation, catalytic enhancement (BMO) (fold over background); higher = more active; k-Seq, kA / k0A0; sequences stand for … in GGGAAUGGAUCCACAUCUACGAAUUC…UUCACUGCAGACUUGACGAAGCUG
Outline: as §1

Sequence | self-aminoacylation [1] | self-aminoacylation [2] | self-aminoacylation [3] | self-aminoacylation [4] | self-aminoacylation [5] | self-aminoacylation [6]
AUUACACUGGUCAUCGCGUGA [Fam2.1 aminoacylation ribozyme variant] | 6.84 | 14.6 | 14.4 | 102 | 7.07 | 12.6
CAGUUUGCUAAAAGUCGCAAG [Fam3.1 aminoacylation ribozyme variant] | 1.46 | 1.3 | 1.5 | 1.86 | 1.4 | 1.64
CCACACUUCAAGCAAUACGUC [Fam1B.1 aminoacylation ribozyme variant] | 0.705 | 0.556 | 0.563 | 1.36 | 0.925 | 0.457
AAGUUUGCGAAUAGUCGCAAC [Fam3.1 aminoacylation ribozyme variant] | 1.66 | 1.46 | 1.32 | 7.2 | 1.4 | 1.33
CUACACCUCAAGCAAUCGGUC [Fam1B.1 aminoacylation ribozyme variant] | 1.01 | 1.41 | 0.8 | 2.14 | 0.976 | 0.869
AUUCACCUAGGUCCUCGCGUG [Fam2.2 aminoacylation ribozyme variant] | 4.84 | 6.43 | 10.4 | 51.4 | 4.96 | 7.68
UUUACCCUGGUCAUCGAGUGA [Fam2.1 aminoacylation ribozyme variant] | 24.6 | 71.3 | 60.9 | 428 | 27 | 68.9
CCACACUUCUAGCAACCGGUC [Fam1B.1 aminoacylation ribozyme variant] | 0.817 | 0.402 | 0.868 | 0.818 | 0.946 | 0.681
CCACACUACAAUCAAUCGGUC [Fam1B.1 aminoacylation ribozyme variant] | 0.797 | 0.811 | 0.688 | 1.18 | 0.877 | 0.663
GUUCACCGAGGUCAUCGGGUG [Fam2.2 aminoacylation ribozyme variant] | 4.56 | 7.43 | 8.58 | 55.9 | 4.56 | 6.57
AUGACCCUGGUCAUUGAGUGA [Fam2.1 aminoacylation ribozyme variant] | 3.61 | 7.49 | 7.74 | 49.8 | 3 | 7.27
AUUACCCUGGUCGUCAAGUGA [Fam2.1 aminoacylation ribozyme variant] | 0.713 | 0.394 | 0.821 | 0.371 | 0.836 | 0.773
GUUACCCUGGUCAACGAGUGA [Fam2.1 aminoacylation ribozyme variant] | 3.72 | 6.61 | 6.2 | 42.7 | 3.22 | 5.98
AUUACCCUAGUCAUCGUGUGA [Fam2.1 aminoacylation ribozyme variant] | 1.25 | 2.89 | 2.17 | 5.35 | 1.29 | 2.4
UUUACCCUGGUCAUCGGGUGA [Fam2.1 aminoacylation ribozyme variant] | 15.2 | 40.3 | 37.2 | 221 | 16.7 | 37.3
CAACACUUCAAGCGAUCGGUC [Fam1B.1 aminoacylation ribozyme variant] | 1.27 | 1.81 | 1.55 | 1.94 | 1.25 | 1.29
CCUCAUUUCAAGCAAUCGGUC [Fam1B.1 aminoacylation ribozyme variant] | 1.11 | 2.75 | 1.08 | 5.96 | 1.05 | 1.07
AUUACCCUGGUCAUAGCGUGA [Fam2.1 aminoacylation ribozyme variant] | 4.12 | 10.6 | 9.18 | 51.8 | 4.99 | 8.87
AAGCUUGCUAAUACUCGCAAG [Fam3.1 aminoacylation ribozyme variant] | 1.5 | 1.98 | 0.856 | 1.31 | 1.26 | 0.693
AUUCACCUAGGUUAUAGGGUG [Fam2.2 aminoacylation ribozyme variant] | 2.23 | 3.5 | 4 | 14.1 | 2.11 | 3.65
CCACACGUCAAACAAUCGGUC [Fam1B.1 aminoacylation ribozyme variant] | 1.21 | 1.83 | 1.45 | 1.2 | 1.34 | 1.2

Sequence | self-aminoacylation [1] | self-aminoacylation [2] | self-aminoacylation [3] | self-aminoacylation [4] | self-aminoacylation [5] | self-aminoacylation [6]
AAGUUCGCUAAUAGGCGCAAG [Fam3.1 aminoacylation ribozyme variant] | 1.23 | 1.2 | 1.03 | 1.58 | 1.16 | 0.965
AUUAACCUAGGUCAUCGGGUU [Fam2.2 aminoacylation ribozyme variant] | 5.18 | 6.05 | 12.7 | 40.5 | 4.78 | 9.3
CUGCUUGAAACAAUCGGUCUG [Fam1A.1 aminoacylation ribozyme variant] | 0.9 | 1.07 | 0.867 | 0.928 | 0.959 | 0.842
CCACACUUCAAGAUAUCGGUC [Fam1B.1 aminoacylation ribozyme variant] | 0.774 | 0.657 | 0.736 | 0.633 | 0.795 | 0.624
CCACAAUUCAAGCAAUCGUUC [Fam1B.1 aminoacylation ribozyme variant] | 0.909 | 0.719 | 0.713 | 1.06 | 0.864 | 0.815
AUGCACCUAGGUGAUCGGGUG [Fam2.2 aminoacylation ribozyme variant] | 4.96 | 6.5 | 5.11 | 30.7 | 3.71 | 4.8
AUUUCCCUGGUCAUUGAGUGA [Fam2.1 aminoacylation ribozyme variant] | 4.47 | 10 | 8.38 | 63.1 | 4.4 | 8.36
AAGUUUGCUAAACGUCGCAAG [Fam3.1 aminoacylation ribozyme variant] | 0.739 | 0.603 | 0.537 | 0.887 | 0.542 | 0.608
CUACUGCAAACAACCGGUCUG [Fam1A.1 aminoacylation ribozyme variant] | 1.02 | 0.804 | 0.953 | 2.5 | 0.836 | 0.762
UAGUUUGCUACUAGUCGCAAG [Fam3.1 aminoacylation ribozyme variant] | 1.42 | 1.23 | 1.23 | 1.57 | 1.1 | 1.24
AGUCACCUAGCUCAUCGGGUG [Fam2.2 aminoacylation ribozyme variant] | 2.6 | 2.81 | 2.79 | 13.9 | 3.12 | 2.42
CUACUUAAAACAAUCGGUCGG [Fam1A.1 aminoacylation ribozyme variant] | 0.878 | 0.59 | 0.857 | 0.727 | 0.74 | 0.786
AUUACCCUGGUCGUCUAGUGA [Fam2.1 aminoacylation ribozyme variant] | 1.15 | 0.905 | 1.53 | 2.09 | 1.04 | 1.37
CUACUUCAAACAAUCAGGCUG [Fam1A.1 aminoacylation ribozyme variant] | 0.911 | 1.33 | 0.78 | 2.7 | 0.723 | 0.549
CUACUUCGAACAAUCCGUCUG [Fam1A.1 aminoacylation ribozyme variant] | 0.636 | 0.588 | 0.587 | 0.35 | 0.745 | 0.738
AAGCUUGCUAAUAGUCGCACG [Fam3.1 aminoacylation ribozyme variant] | 1.81 | 1.33 | 1.6 | 4.41 | 1.76 | 1.29
CCACACUUCAAGCAAUCAUUC [Fam1B.1 aminoacylation ribozyme variant] | 0.649 | 0.686 | 0.56 | 1.64 | 0.671 | 0.539
AUUCAUCUAGGUCAUCGGGUG [Fam2.2 aminoacylation ribozyme variant] | 4.88 | 7.12 | 9.76 | 39.2 | 4.7 | 7.46
AUUGCCUUGGUCAUCGAGUGA [Fam2.1 aminoacylation ribozyme variant] | 4.46 | 8.73 | 8.79 | 48.9 | 4.83 | 8.02
CCACACUUCAAGCAAGCUGUC [Fam1B.1 aminoacylation ribozyme variant] | 0.504 | 0.346 | 0.404 | 0.716 | 0.565 | 0.451
AUUACUCUGCUCAUCGAGUGA [Fam2.1 aminoacylation ribozyme variant] | 1.29 | 1.92 | 1.57 | 2.12 | 1.3 | 1.58
